Experimental data from the nanobody polyreactivity screen of Harvey et al. (2022).

Experiment: yeast display, Sf9 membrane polyspecificity reagent, FACS + sequencing; frameworks hold sequencing errors
Outline: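 A nanobody's polyreactivity label depends on the gate it was sorted from. Yeast display cells were stained with 10% biotinylated, detergent-solubilized Sf9 membrane reagent for 1 hour at 4 °C, enriched on streptavidin microbeads and sorted by FACS. The low and high (top ~1%) gates were set on anti-HA fluorescence for expression and streptavidin fluorescence for reagent binding.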

Sequence | polyreactivity (PSR sort gate)
QVQLVESGGGLLQAGGSLRISCAASGRTLFVYDMGWYRQAPGKERDLVAAITGDGSTNYADSVKGRFTISRDNAKNTVYLQMNSLKPEDPAVYYCNAGDRIGFWNTVEYNYWGQGTQVTVSS | low polyreactivity
QVQLVESGGGIVQAGGSLRLSCAASGFTLYYYAMGWYRQAPGKERELVAAITSSGTSTYYADSVKGRFTISRDNAKNTVYVQMNSLKPEDTAVYYCAAVSKIYHYRAVRLDDYWGQGTQVTVSS | low polyreactivity
QVQLVESGGGLVQAGGSLRLSCAASGITFDSYAMGWYRQAPGKERELVAAISYSGGSTYYADSVKGRFTISRDNAKNTVYLQMNSLKPEDTAVYYCAAASDDDYDYWGQGTQVTVSS | low polyreactivity
QVQLVESGGGLVQAGGSLRLSCAASGSTFRSYAMGWYRQAPGKERELVAAISYSGDSTYYADSVKGRFTISRDNAKNTVYLQMNSLKPEDTAVYYCAALRDWDIQGEPWKRYGYWGQGTQVTVSS | low polyreactivity
QVQLVESGGGIVQAGGSLRLSSAASGLTFAYNTMGWYRQAPGIEREFVASISSSGGNTYYADSVKGRFTISRDNAKNTVYLQMHSLKPEDTAVYYCAAKKKYHYVATYKRFENWGQGTHVTVSS | low polyreactivity
QVHLVESGGGLVQAGGSHRLSCAASGSISFIYAMGWYIQAPGKERELVAAITSSGGSTYYADSVKGRFTISRDNAQNTVYLQMNSLKPDDTAVYYCAAERWTSRHYSGNDYWGQGTQVTVSS | low polyreactivity
QVHLLDSVGGLVQAGGSLRLSCAACGRIVGTNAMGWYRQAPGKERELVATITRGGGNTYYADSVKGRFTISRDNAKNTVYLQLNSLKPEDTAGYDCAAKFHRFAWYSHYAYWGQGTQVTVSS | low polyreactivity
QVQLVESGGGLVQAGGSLRLSCAASGGIFRSYAMGWYRQAPGKERELVAAINYSGGSTYYADSVKGRFTISRDNAKNSVYLQMNSLKPEDTAVYYCASDGYIRQYVTYYYWGQGTQVTVSS | low polyreactivity
QVQLVESGGGLVQAGGSLRLSCAASGSTFYASVMGWYRQAPGKERELVAGITWYGGSTYYADSVKGRFTISRDNAKNTVYLQMNSLKPEDTAVYYCAADYYNTYGYDYCGQGTQVTVSS | low polyreactivity
QVQLVESGGGLVQAGGSLRLSCAASGSTFIYYAMGWYRQAPGKERELVASISRSGGSTYYADSVKGRFTISRDNAKNTVYLQMNSLKPEDTAVYYCAAVGWTYEYWEWYDYWGQGTQVTVSS | high polyreactivity
QLQLVESGGGLVQAGGSLRLSCAGSGSIFVGYAMGWYRQAPGKARELVAAISTRGGSTYYADSVKGRFTISRDNAKNTVYLQMNSLKPEDTAVYYCAADYLDSTYGYVYGWDDYWGQGTQVTVSS | low polyreactivity
QVQLVESGGGLVQAGGSLRLSCAASGSIFRWYAMGWYRQAPGKERELVAAITWSASRTYYADSVKGRFTISRDNAKNTVYLQMNSLKPEDTAVYYCAKRGWSSVYFHGGFGYKLYDYWGQGTQVTVSS | low polyreactivity
QVQLVESGGGLVQAGGSLRLSCAASGSIFSGYVMGWSRQAPGKERELVAAISGSGGSTYYADSVKGRFTISRDNAKNTVYLQMNSLNPEDTAVYYCNKGLSRSYWWVDYWGQGTQVTVSS | low polyreactivity
QVQLVESGGGLVQAGGSLRLSCAASGFTYKYYAMGWYRQAPGKERELVAAIRRSAGSTNYADSVKGRFTISRDNAKNTVYLQMNSLKPEDTAVYYCNTVGTRQPMDYWGQGTQVTVSS | high polyreactivity
QVQLVESGGGLVQAGGSLRLSCAPSGIIFQFYAMGWYRQAPGKERELVAAISRSGGITHYADSVKGRFTISRDNAKNTVYLQMNSLKPEDTAVYYCAAVRQAYPRLDYWGQGTQVTVSS | high polyreactivity
QVQLVESGGGLVQAGGSLRLSCAASGFIFRFNAMGWYRQAPGKEREMVAAISWRGGSTYYADSVKGRFTISRDNAKNTVYLQMNSLKPEDTAVYYCAADVTRYYRYGYNYWGQGSQVTVSS | high polyreactivity
HVQLVESGGGLVQAGGRLRLSCAASASIFDSNAMGWYRQAPGKERELVADIRGIGGSTYYADSVKGRFTISRDNAKNTVYLQMNSLKPEDTAVYYCNTSTLGGYYWGQGTQVTVSS | low polyreactivity
QVQLVESGGGLVQAGGSLRLSCAASGRIQYNAMGWYRQAPGKEREFVAAISWSGGTTYYADSVKGRFTISRDNAKNTVYLQMNRLKPEDTAVYYCATPYTHWGQGTQVTVSS | high polyreactivity
QVQLVESGGGLVQAGGSLRLSCAASGRIFPPNAMGWYRQAPGKERELVAAITGSGGSTYYADSVKGRFTITRDNAKNTVYLQKNSLKPADTAVYYCAVESLGRVSRGYDYWGQGTQVTVSS | low polyreactivity
QVQLVESGVGLVQAGGSLRLSCAASGSTFYKYTMGWYRQAPGKESELVSAISRSGGRTYYADSVKGRFTISRDNAKNTVYLQMNSLKPEDTAVYYCAVVTPRYYGDTKYDYWGQGTQVTVSS | high polyreactivity
QVQLVESGGGLVQAGGSLRLSCAASGSILAAYAKGWYRQAPGKERELVAAISLDDGSTYYADSVKGRFTISRDNAKNTVYFQMNSLKPVDTAVYYCAADYYVRSQLLYATSGNYWGQGTQVTVTS | high polyreactivity
QVQLVESGGGLVQAGGSLRLSCAASGSIFELNAMGWYRQAPGKEMELVAAIRWRTGRTYYADSVKGRFTISRDNAKNTVYLLMNSLKPEDTAVYYCNADVTSLTRVHGRFIVSDYDYWGQGTQVTVSS | low polyreactivity

Sequence | polyreactivity (PSR sort gate)
QVQLVESRGGLVQAGGSHRLSCAASGSIFGYYAMGWYRQAPGNERELVAAIRSTGSTNYADSVKGRFTISRDNAQNSVYLQMNSLKPVDTAVYYCAAGYITWGSGNWVVTPYDYWGQGTQVTVSS | high polyreactivity
QVQLVESGGGLVQAGGSLRLSCAASGGTFPLYAMGWYRPAPGKERELVAAIRWSGGRTYYADSVKGRFTISRDNAKNTVYLQMNSLKPEDTAVYYCAADYDDGWGYDYWGQGTQVTVSS | high polyreactivity
QVQLVESAGGLVQAGGSLRLSCDASGRIFQRNAMGWYRQEPGKERQFVAAISSRGGTTYYADSVKGRFTISRDNAKNTVYLQMNSLKQEDNAVYYCAAGYVHLYYFHEYYWGQGTQVTVSS | high polyreactivity
QVQLVQSGGGLVQAGGSLRLSCAASGSTFRRKVMGWYRQAPGKETELVAAISWSGTSTNYADSEKGRFTISRDNAKNTVYLQMNSVKPEDTAVYYCATQSLYYRWGLDYWGQGTEVTVSS | high polyreactivity
QVQLVESGGGLVQAGGSLRLSCAASGNILYDNAMGSYRQAPGKERELVAAIDWSGGSTYYADSVKGRFTISRDNAKNTVYLQMNSLKPEDTAVYYCAAESYIGKYGSYDYWGLGTQVTVSS | low polyreactivity
QVQLVESGGGLVQAGGSLRLSCAASGRIFWYYAMGGYRQAPGKEREFVATINTSGGSTYYADSLKGRFTISRDYARSTVCLQMNSLTPEDTAVYYCYAACRYYRTEYYSWGQGTQVTVSS | low polyreactivity
QVQHVESGGGLVQAGGSLRLSCAASGYIFSRYRGWYRQAPGTERELVAAITRGGVSTYYADSVKGRFTISRDNAKNTVYLQMNSLKPEDTAVYYCATGRPVYYVASYDYDYWGQGTQVTVSS | low polyreactivity
QVQLVESGGGLVQAGGSLRLSCAAYGSTFFLYAMGWYRQAPGKVRELVAAITYTDGDTYYADSVKGRFTISRDNAKHTVYLQMNSLKPEDTAVYYCNAGGDEPVYGSGYDYWGQGTQVNVSS | low polyreactivity
QVHLVESGGGLVQAGGSLRLSCAASGSIFGDNTMGWYRQAPGKERELVAAISQSSGTSTYYADSVKGRFTISRDNAKNTVYFQMNSLKPEDTAVYYCAKDPHGSDFGYWGQVTQVTVSS | low polyreactivity
QVQLVESAGGLDQAGGSLRLICDASGFISRNAMGWYTQAPGKERELVAAITRGGSTNYADSVKGRFTISRDNAKNTVYLQMNSLKPEDSAVYYCNQQRQGNSRSYYQTYYGMYYWGQGTQVTVSS | high polyreactivity
QVQLVESGGGLVQAGGSLRLSCAASGIILGKNAMGWYRQAPGKERELVASITSGAGITYYADSVKGRFTISRDTAKNTVYLQMNSLKPEDTAVYYCNTYPYLWGQGTQVTVSS | low polyreactivity
QVQLVESGGGLVQAGGSLRLSCAASGSTFYINAMGWYRQAPGKERVLVAAISWSGGSTYYADSVKGRFTISRDNAKNTVYLQMNSLKPEDTAVYYCAADWYLGWSLDYDYWGQGTQVTVSS | low polyreactivity
QVQLVESGGGLVQAGGSLRLSCAASGYTFRFNAMGWYRQAPGKEREFVAAIDFGGAGTYYADSVKGRFTISRDNATNTVYVQMNSLKPEDTAVYYCNARDGVTTEFDYWGQGTQVTVSS | low polyreactivity
QVQLVESGGGLVQAGGSLRLSCAASGITFQRYAMGWYRQAPGKERELVAAISTNGGTTYYADSVKGRFTISRDTAKNTVYLQMNSLKPEDTAVYYCNAESGYVYYIRYNYWGQGTQVTVSS | high polyreactivity
QVQLVESGGGLVQAGGSLRLSCAASGSIFLYYAMGWYRQAPGKERELVAAITGGGGTNYADSVKGRFTISRDNAKNTVYLQMNSLKPEDTAVYYCAADTSGQFPYSYYNYDYDYWGQGTQVTVSS | low polyreactivity
QVQLVESGGGLVQAGGSLRLSCAASGITFNQYVMGWYRQAPGKESELVAAISRSGATTYYADSVKGRFTISRDNAKNTVYLQMNSLKPEDTAVYYCAVRGSVSYTRYGYWGQGTQVTVSS | high polyreactivity
QVQLVESGGGLVQAGGSLRLSCAASGFTFANNAMGWYRQAPGKERELVAAISWNGGSTFYADSVKGRFTISRDNAKNTVYLQMNSLKPEDTAVYYCNTVASYYRWKSYYYWGQGTQVTVSS | high polyreactivity
QVQLVESGGGLVQAGGSLRLSCAASGSTFVTNDMGWSRQAPGKERELVAAISSGTSTNYAYSVKGRFTISRDNAKNTVYLQMNSQKPEDTAVYYCAADSLKRYDYWGQGTQVTVSS | low polyreactivity
QVQLVESGGGLVQAGGSLRLSCAASGRTFPEYDMGWYIQAPGKERELVAAISTSGGSTYYADSVKGRFTISRDNAKNTVYLQMNSLKPEDTAVYYCAAQVTSIWGFTYAYRYDYWGQGTQVTVSS | low polyreactivity
QVQLVESGGGLVQAGGSLRLSCAASGLIFYLYAMGWYRQAPGKERELVAAFTYSGGSTRYADSVKGRFTISRDNAKNTVYLQMNSLKPEDTAVYYCNADGTAPTEMDYWGQGTQVTVSS | low polyreactivity
QVQLVESGGGLVQARGSLRLSCAASGRIFSPYAMGWNRQAPWKERELVASITSGGTTNYADSVKGRFTISRDNAKNTVYLQMNSLKTEDTAVYYCATTYSYDDKFTSTLVDPDYGYWGQGTQVTVSS | low polyreactivity
